Consider two molecules from patent US20250283885A1, “MODULAR BIOSENSOR FOR RECEPTOR TYROSINE KINASE ACTIVITY” (The Trustees of Princeton University, priority 2024, published 2025).

The target in one assay is T1, FGFR1 (Homo sapiens, UniProt P11362).
T1 construct: expressed in transfected cells; host or cells: NIH 3T3 cells expressing iRFP-ZtSH2
The assay can be described thus: FGFR1 pYtag in NIH 3T3 cells: clearance of cytosolic ZtSH2. The assay is classed as cell-based. The settings on record: not in cells with ITAM-less FGFR1. Here is the method:
One advantage of the pYtag approach is its modularity: ITAMs can in principle be fused to the C-termini of many different RTKs and recruit ZtSH2 upon stimulation. Therefore, it was tested whether pYtags could be adapted to monitor the activity of receptors other than EGFR. pYtag biosensors were designed for two additional RTKs: 1) ErbB2, a ligandless member of the ErbB family that signals by heterodimerizing with ligand-bound EGFR; and 2) fibroblast growth factor receptor 1 (FGFR1), a non-ErbB family RTK. ErbB2 is a particularly challenging RTK to study because it can only be activated in conjunction with an additional RTK (e.g., EGFR), so Grb2-based biosensors would be unable to distinguish between the activity of EGFR and ErbB2.
Starting from NIH 3T3 cells expressing iRFP-ZtSH2, cell lines expressing either an ErbB2 pYtag (ErbB2-CD3ε-FusionRed), an FGFR1 pYtag (FGFR1-CD3ε-FusionRed), or ITAM-less variants of each were generated. For the ErbB2 case, cells with EGFR-Citrine were further transduced to express both required components of a functional receptor heterodimer (see FIG. 3, and FIGS. 4A-4B).
The pYtag approach is indeed modular, and this strategy can be readily adapted for monitoring the activation of distinct RTKs in individual cells.

A further assay has as its target EGFR (Homo sapiens, UniProt P00533). The assay can be described thus: EGFR pYtag live-cell imaging: clearance of cytosolic ZtSH2 in NIH 3T3 cells. The settings on record: varying doses, NIH 3T3 EGFR pYtag.

T1 sequence (P11362 22-822, species assumed): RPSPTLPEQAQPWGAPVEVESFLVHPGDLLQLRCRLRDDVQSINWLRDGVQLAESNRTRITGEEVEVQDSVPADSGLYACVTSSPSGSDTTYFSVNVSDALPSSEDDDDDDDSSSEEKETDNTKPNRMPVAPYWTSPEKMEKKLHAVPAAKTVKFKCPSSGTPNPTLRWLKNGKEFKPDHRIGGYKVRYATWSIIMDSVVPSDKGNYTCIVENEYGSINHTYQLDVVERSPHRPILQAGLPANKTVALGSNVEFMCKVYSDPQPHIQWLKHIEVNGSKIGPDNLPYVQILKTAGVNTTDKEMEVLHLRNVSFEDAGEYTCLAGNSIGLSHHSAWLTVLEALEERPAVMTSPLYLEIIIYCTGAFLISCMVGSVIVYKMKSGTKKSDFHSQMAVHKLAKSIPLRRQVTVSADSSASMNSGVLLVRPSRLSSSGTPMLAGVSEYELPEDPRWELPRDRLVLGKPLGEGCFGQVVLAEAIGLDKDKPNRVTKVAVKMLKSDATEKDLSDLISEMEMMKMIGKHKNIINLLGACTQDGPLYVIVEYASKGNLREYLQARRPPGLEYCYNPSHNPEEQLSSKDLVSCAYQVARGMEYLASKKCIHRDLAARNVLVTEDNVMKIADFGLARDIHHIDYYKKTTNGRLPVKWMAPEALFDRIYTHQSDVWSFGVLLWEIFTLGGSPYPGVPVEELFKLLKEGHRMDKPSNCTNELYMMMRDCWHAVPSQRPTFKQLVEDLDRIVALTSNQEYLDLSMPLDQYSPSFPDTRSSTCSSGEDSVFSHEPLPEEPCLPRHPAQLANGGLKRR
Excerpt for EGFR: Six ITAMs from the CD3γ, CD3δ, CD3ε, and CD3ζ chains of the TCR. In each case, three identical repeats of the ITAM were fused to the C-terminal tail of EGFR followed by the FusionRed fluorescent protein (EGFR-ITAM-FusionRed). Each receptor was the co-expressed with an iRFP-labeled ZtSH2 (iRFP-ZtSH2) in NIH 3T3 fibroblasts, which express negligible levels of EGFR. […] Because ZtSH2 can in principle be recruited rapidly on and off the membrane and may localize to distinct subcellular compartments, it was reasoned that pYtags could be used to monitor the subcellular activity of an RTK in individual cells over time.

B1: FGF4: activating ligand used to stimulate FGFR1 pYtag-expressing cells (protein, UniProt P08620 31-206, looked up)
Fibroblast growth factor 4: APTAPNGTLEAELERRWESLVALSLARLPVAAQPKEAAVQSGAGDYLLGIKRLRRLYCNVGIGFHLQALPDGRIGGAHADTRDSLLELSPVERGVVSIFGVASRFFVAMSSKGKLYGSPFFTDECTFKEILLPNNYNAYESYKYPGMFIALSKNGKTKKGNRVSPTMKVTHFLPRL
On to B1, for which, in the assay with FGFR1, the “ZtSH2 response of FGFR1 pYtag-expressing cells” value is on record as “induced cytosolic clearance of ZtSH2”.

B2: EPGN: epigen, low-affinity EGFR ligand (protein, UniProt Q6UW88 23-154, looked up)
Epigen: AAVTVTPPITAQQGNWTVNKTEADNIEGPIALKFSHLCLEDHNSYCINGACAFHHELEKAICRCFTGYTGERCEHLTLTSYAVDSYEKYIAIGIGVGLLLSGFLVIFYCYIRKRCLKLKSPYNVCSGERRPL
As for B2, in the assay with EGFR, the “EGFR activity dynamics after low-affinity ligand” value is on record as “rapid rise in EGFR activity followed by a plateau within minutes”.
